# Source: patent publication US20240424023A1
# Columns and labels:
# [1] = target: CD80-mCherry expressed on DG75 cells (UniProt P33681); test: cell-based or functional assay
# [2] = target: CD86-mCherry expressed on DG75 cells (UniProt P42081); test: cell-based or functional assay
# UniProt P42081, sequence (P42081 24-329): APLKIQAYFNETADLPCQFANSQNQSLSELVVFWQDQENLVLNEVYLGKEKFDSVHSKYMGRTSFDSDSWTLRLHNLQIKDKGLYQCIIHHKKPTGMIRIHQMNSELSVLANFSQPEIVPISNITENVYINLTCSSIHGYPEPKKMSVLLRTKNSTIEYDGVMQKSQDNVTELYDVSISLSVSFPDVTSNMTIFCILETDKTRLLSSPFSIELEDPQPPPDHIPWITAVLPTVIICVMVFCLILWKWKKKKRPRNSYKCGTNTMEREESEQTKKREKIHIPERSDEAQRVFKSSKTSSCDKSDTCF
# UniProt P33681, sequence (P33681 35-288): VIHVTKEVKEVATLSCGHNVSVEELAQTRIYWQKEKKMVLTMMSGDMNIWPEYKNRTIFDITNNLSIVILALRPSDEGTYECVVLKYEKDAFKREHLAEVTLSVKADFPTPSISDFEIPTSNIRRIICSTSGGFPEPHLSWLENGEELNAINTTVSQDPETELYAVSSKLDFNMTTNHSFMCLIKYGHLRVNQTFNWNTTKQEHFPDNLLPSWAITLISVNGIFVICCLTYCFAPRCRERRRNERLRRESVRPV
substance,measurement,setting,value
"CTLA4 expressed from a CTLA4-P2A-GFP transgene in human T cells (exon 1 cDNA insertion, intron 1 insertion of exons 2-4 with WPRE donor, or lentiviral vector) (from UniProt P16410 36-223) (receptor)","transendocytosis, cells edited with the cDNA exon 1 insertion (fold less than unedited cells)",[1],2
same,"transendocytosis, cells edited with the cDNA exon 1 insertion (fold less than unedited cells)",[2],2
